Experimental data: the Immune Epitope Database (IEDB)

Assays:
HLA-B*57:01 [1] = assay: IEDB peptide-MHC binding, purified MHC/competitive/fluorescence; filed as Kd, often an IC50 or EC50 that approximates it; ≥ and ≤ were set here for values at or beyond the usual limits of such assays; conditions: source organism: Escherichia coli 536
HLA-B*39:01 = assay: as above; conditions: source organism: Escherichia coli 536
HLA-A*03:01 = assay: as above; conditions: source organism: Escherichia coli 536
HLA-A*02:03 = assay: as above
HLA-A*23:01 = assay: as above
HLA-A*24:03 = assay: as above; conditions: source organism: Escherichia coli 536
HLA-A*02:12 = assay: as above; conditions: source organism: Escherichia coli 536
HLA-B*18:01 = assay: as above; conditions: source organism: Escherichia coli 536
HLA-A*02:16 = assay: as above; conditions: source organism: Escherichia coli 536
HLA-A*02:11 = assay: as above
HLA-A*69:01 [2] = assay: as above; conditions: source organism: Escherichia coli 536
HLA-A*26:01 = assay: as above; conditions: source organism: Escherichia coli 536
HLA-B*15:01 [3] = assay: as above
HLA-A*02:01 [4] = assay: as above
HLA-A*68:02 = assay: as above; conditions: source organism: Escherichia coli 536
HLA-B*51:01 = assay: as above
HLA-A*02:19 = assay: as above; conditions: source organism: Escherichia coli 536
HLA-B*15:17 [5] = assay: as above; conditions: source organism: Escherichia coli 536
HLA-B*27:03 = assay: as above; conditions: source organism: Escherichia coli 536
HLA-A*29:02 = assay: as above; conditions: source organism: Escherichia coli 536
HLA-B*46:01 = assay: as above; conditions: source organism: Escherichia coli 536
HLA-B*53:01 = assay: IEDB peptide-MHC binding, purified MHC/competitive/fluorescence; ≥ and ≤ were set here for values at or beyond the usual limits of such assays; conditions: source organism: human gammaherpesvirus 4
HLA-C*03:03 = assay: IEDB peptide-MHC binding, purified MHC/direct/fluorescence; filed as Kd, often an IC50 or EC50 that approximates it; ≥ and ≤ were set here for values at or beyond the usual limits of such assays
HLA-C*05:01 = assay: as above
HLA-B*57:01 [6] = assay: as above; conditions: source organism: Campylobacter jejuni RM1221
HLA-C*15:02 = assay: as above
HLA-B*15:17 [7] = assay: as above; conditions: source organism: Campylobacter jejuni RM1221
HLA-B*58:01 [8] = assay: as above; conditions: source organism: Campylobacter jejuni RM1221
HLA-C*04:01 = assay: IEDB peptide-MHC binding, purified MHC/competitive/fluorescence; filed as Kd, often an IC50 or EC50 that approximates it; ≥ and ≤ were set here for values at or beyond the usual limits of such assays
HLA-B*83:01 = assay: as above
HLA-B*45:06 = assay: as above
HLA-B*15:42 = assay: as above
HLA-C*12:03 = assay: IEDB peptide-MHC binding, purified MHC/direct/fluorescence; filed as Kd, often an IC50 or EC50 that approximates it; ≥ and ≤ were set here for values at or beyond the usual limits of such assays
HLA-A*01:01 [9] = assay: IEDB peptide-MHC binding, purified MHC/competitive/fluorescence; filed as Kd, often an IC50 or EC50 that approximates it; ≥ and ≤ were set here for values at or beyond the usual limits of such assays; conditions: source organism: Escherichia coli
HLA-B*58:01 [10] = assay: as above; conditions: source organism: Escherichia coli
HLA-A*02:06 = assay: as above
HLA-B*07:02 = assay: IEDB peptide-MHC binding, purified MHC/direct/fluorescence; filed as Kd, often an IC50 or EC50 that approximates it; ≥ and ≤ were set here for values at or beyond the usual limits of such assays; conditions: source organism: Mycobacterium tuberculosis variant bovis BCG str. Pasteur 1173P2
HLA-B*35:01 = assay: IEDB peptide-MHC binding, purified MHC/competitive/fluorescence; filed as Kd, often an IC50 or EC50 that approximates it; ≥ and ≤ were set here for values at or beyond the usual limits of such assays; conditions: source organism: Mycobacterium tuberculosis C
HLA-A*69:01 [11] = assay: IEDB peptide-MHC binding, purified MHC/direct/fluorescence; filed as Kd, often an IC50 or EC50 that approximates it; ≥ and ≤ were set here for values at or beyond the usual limits of such assays; conditions: source organism: Haemophilus influenzae
HLA-B*15:01 [12] = assay: as above; conditions: source organism: Haemophilus influenzae
HLA-A*02:01 [13] = assay: as above; conditions: source organism: Haemophilus influenzae
HLA-A*01:01 [14] = assay: as above; conditions: source organism: Haemophilus influenzae
[15] = source organism: Escherichia coli 536
[16] = source organism: Escherichia coli O157:H7 str. EDL933
[17] = source organism: Mycobacterium tuberculosis C
[18] = source organism: Yersinia pestis Nepal516
[19] = source organism: Salmonella enterica subsp. enterica serovar Typhi str. CT18
[20] = source organism: Yellow fever virus 1899/81
[21] = source organism: Haemophilus influenzae R2846
[22] = source organism: Haemophilus influenzae R3021
[23] = source organism: Human herpesvirus 4 strain B95-8

QTDNDIWFW
Kd (HLA-B*57:01 [1]): 880 nM
Kd (HLA-B*39:01): ≥ 20 µM
Kd (HLA-A*03:01): ≥ 20 µM
Kd (HLA-A*02:03; [15]): ≥ 20000 nM
Kd (HLA-A*23:01; [15]): ≥ 20000 nM
Kd (HLA-A*24:03): ≥ 20 µM
Kd (HLA-A*02:12): ≥ 20 µM
Kd (HLA-B*18:01): ≥ 20 µM
Kd (HLA-A*02:16): ≥ 20 µM
Kd (HLA-A*02:11; [15]): ≥ 20 µM
Kd (HLA-A*69:01 [2]): ≥ 20 µM
Kd (HLA-A*26:01): ≥ 20 µM
Kd (HLA-B*15:01 [3]; [15]): ≥ 20000 nM
Kd (HLA-A*02:01 [4]; [15]): ≥ 20000 nM
Kd (HLA-A*68:02): ≥ 20 µM
Kd (HLA-B*51:01; [15]): ≥ 20 µM
Kd (HLA-A*02:19): ≥ 20 µM
Kd (HLA-B*15:17 [5]): ≥ 20 µM
Kd (HLA-B*27:03): ≥ 20 µM
Kd (HLA-A*29:02): ≥ 20 µM
Kd (HLA-B*46:01): ≥ 20 µM

HPVLVTATL
IC50 (HLA-B*53:01): 3.91 µM

MLNRYKLIY
IC50 (HLA-B*53:01): 0.171 µM

YVLNGYTEF
Kd (HLA-C*03:03; [16]): 60 nM
Kd (HLA-C*05:01; [16]): 37 nM
Kd (HLA-A*23:01; [16]): ≤ 1 nM

HSNSEYLMF
Kd (HLA-B*57:01 [6]): 134 nM
Kd (HLA-C*15:02; source organism: Campylobacter jejuni): 93 nM
Kd (HLA-B*15:17 [7]): 1.1 nM
Kd (HLA-B*58:01 [8]): 5.5 nM

RLYQYSFAK
Kd (HLA-C*04:01; [17]): ≥ 5 µM
Kd (HLA-B*83:01; [17]): ≥ 5 µM
Kd (HLA-B*45:06; [17]): ≥ 5 µM
Kd (HLA-B*15:42; [17]): ≥ 5 µM

YSALRPHEY
Kd (HLA-C*12:03; source organism: Escherichia coli B171): 9 nM
Kd (HLA-A*01:01 [9]): 12 nM
Kd (HLA-B*58:01 [10]): 1380 nM

RQPLNIQAI
Kd (HLA-A*02:06; [18]): 59.2 nM
Kd (HLA-A*02:01 [4]; [18]): 305 nM

MTAASYARY
IC50 (HLA-B*53:01): ≥ 20 µM

MMQTYTGAL
Kd (HLA-C*03:03; [19]): 119 nM
Kd (HLA-B*15:01 [3]; [19]): 64.9 nM

REMHHLVEF
Kd (HLA-C*04:01; [20]): ≥ 5 µM
Kd (HLA-B*83:01; [20]): ≥ 5 µM
Kd (HLA-B*45:06; [20]): ≥ 5 µM
Kd (HLA-B*15:42; [20]): ≥ 5 µM

VMLQIPFYK
Kd (HLA-A*23:01; source organism: Rickettsia bellii RML369-C): 308 nM

WPVLGSEVL
Kd (HLA-B*07:02): 223 nM
Kd (HLA-B*51:01; [17]): ≥ 20 µM
Kd (HLA-B*35:01): ≤ 0.1 nM

TSDEIYMTF
Kd (HLA-C*15:02; [21]): ≥ 20000 nM
Kd (HLA-C*05:01; [21]): 16 nM

MLEEMQSAV
Kd (HLA-A*69:01 [11]): 2660 nM
Kd (HLA-B*15:01 [12]): ≥ 67.2 µM
Kd (HLA-A*02:01 [13]): 71 nM
Kd (HLA-A*01:01 [14]): 2100 nM
Kd (HLA-A*02:06; [22]): ≤ 0.1 nM
Kd (HLA-A*02:03; [22]): 4.4 nM
Kd (HLA-A*02:11; [22]): ≤ 0.0001 µM

KAVETPILV
Kd (HLA-C*15:02; [23]): 51 nM
Kd (HLA-C*12:03; [23]): ≤ 1 nM
